We go through eight molecules from patent publication US20190106487A1 (Sanofi, published 2019).

Test [1] concerns the target T1, human IL-1RAcP on 293T/17-FR cells (human, UniProt Q9NPH3 21-570).
T1 sequence (looked up): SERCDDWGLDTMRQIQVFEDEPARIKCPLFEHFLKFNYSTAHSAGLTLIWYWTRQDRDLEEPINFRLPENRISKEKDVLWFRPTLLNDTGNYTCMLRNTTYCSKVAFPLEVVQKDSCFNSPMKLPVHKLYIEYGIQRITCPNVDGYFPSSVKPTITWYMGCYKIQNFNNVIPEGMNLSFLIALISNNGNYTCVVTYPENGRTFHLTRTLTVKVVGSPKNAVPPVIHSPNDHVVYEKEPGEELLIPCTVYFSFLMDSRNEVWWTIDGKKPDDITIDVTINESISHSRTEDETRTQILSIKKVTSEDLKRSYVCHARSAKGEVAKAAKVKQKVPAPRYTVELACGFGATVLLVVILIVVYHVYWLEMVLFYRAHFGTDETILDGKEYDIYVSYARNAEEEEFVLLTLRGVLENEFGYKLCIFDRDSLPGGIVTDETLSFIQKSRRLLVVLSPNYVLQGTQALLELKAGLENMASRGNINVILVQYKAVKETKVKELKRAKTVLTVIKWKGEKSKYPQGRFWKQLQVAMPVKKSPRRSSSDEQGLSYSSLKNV
As to the kind of experiment: cell-based or functional assay.

The target of test [2] is T2, rhIL-1RAcP/Fc Chimera (human, UniProt Q9NPH3 21-359).
T2 construct: also called P013_03; P013-03
T2 sequence (looked up): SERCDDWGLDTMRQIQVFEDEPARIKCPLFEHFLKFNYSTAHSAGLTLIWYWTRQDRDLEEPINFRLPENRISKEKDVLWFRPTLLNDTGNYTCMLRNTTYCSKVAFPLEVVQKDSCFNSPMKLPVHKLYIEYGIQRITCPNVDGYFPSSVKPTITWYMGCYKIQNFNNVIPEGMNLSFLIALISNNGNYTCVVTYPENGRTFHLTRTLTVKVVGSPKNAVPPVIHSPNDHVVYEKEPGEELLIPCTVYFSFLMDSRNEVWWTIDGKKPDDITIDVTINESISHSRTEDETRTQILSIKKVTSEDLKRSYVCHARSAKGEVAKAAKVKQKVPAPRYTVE
As to the kind of experiment: ELISA, recombinant purified mAb.

Test [3] addresses T2, rhIL-1RAcP/Fc Chimera. Nature of the test: ELISA, primary supernatant, coated hu-IL-1RAcP-Fc. The procedure, abridged: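 Plates coated with 0.5 μg/mL Fc-tagged human IL-1RAcP; rabbit B-cell supernatant antibodies detected by peroxidase anti-rabbit IgG Fab2 and TMB, absorbance 450/620 nm. Parallel IL12Rβ1-Fc coating served as counterscreen to exclude tag binders.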
In test [4] the target is T3, mIL1RAcP-Fc (murine, UniProt Q61730 21-359).
T3 construct: also called P013_04; P013-04
T3 sequence (looked up): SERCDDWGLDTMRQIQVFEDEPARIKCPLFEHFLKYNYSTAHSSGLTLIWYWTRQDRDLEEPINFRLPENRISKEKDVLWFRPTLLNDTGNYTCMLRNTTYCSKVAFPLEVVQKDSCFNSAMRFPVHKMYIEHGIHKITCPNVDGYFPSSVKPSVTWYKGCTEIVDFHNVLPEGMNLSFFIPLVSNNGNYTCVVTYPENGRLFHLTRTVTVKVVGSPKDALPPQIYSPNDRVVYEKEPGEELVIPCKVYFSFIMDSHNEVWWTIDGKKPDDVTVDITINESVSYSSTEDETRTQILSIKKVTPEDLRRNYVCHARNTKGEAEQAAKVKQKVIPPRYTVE
As to the kind of experiment: ELISA, primary supernatant, coated mu-IL-1RAcP-Fc.

B1: P013.S.01.B.C06 (antibody, V domains shown)
VH: QSVEESGGRLVTPGGSLTLTCTVSGFSLSIYAMGWFRQAPGKGLEWIGDIYAGSGSTWYASWAKGRFTISKTSTTVDLKITSPTTEDTATYFCAREIDAGYVGYGFNLWGQGTLVTVSS
VL: AQALTQTPSSVSAAVGGTVTINCQSSQSVYSDYLAWYQQKPGQPPKLLIYQASKLATGVPSRFKGSGSGTQFTLTISGVQSDDAATYYCQATYYGSGWYRAFGGGTELVVK
notes: rabbit monoclonal antibody; also called P013.A.00014.D06
Take B1: in test [1], the “functional reporter gene assay (% inhibition), 0.04 µg/mL mAb” value was determined as 15%; the “functional reporter gene assay (% inhibition), 0.2 µg/mL mAb” value came to 70%; the “functional reporter gene assay (% inhibition), 1 µg/mL mAb” value is 92%; the “functional reporter gene assay (% inhibition), 5 µg/mL mAb” value was determined as 93%. Besides, in test [1], the “primary supernatant functional assay (% inh.), NF-kB luciferase reporter” value turned out to be 72%. Also, the EC50 in test [2] came out at 0.07 µg/mL. Besides, the “hu-IL1RaP ELISA (OD)” value in test [3] amounted to 3.4 OD. The “mu-IL1RaP ELISA (OD)” value in test [4] was -0.1 OD.

B2: P013.S.02.B.C01 (antibody, V domains shown)
VH: QSVEESGGRLVTPGGSLTLTCTVSGFSLSVYAMGWFRQAPGKGLEWIGDIYTGSGSTWYASWAKGRFTISKTSTTVDLKITSPTTEDTATYFCAREIDAGYVGYGFNLWGQGTLVTVSS
VL: AQALTQTPSSVSAAVGGTVTINCQSSQSVYSDYLVWYQQKPGQPPKLLIYQASKLASGVPSRFKGSGSGTQFTLTISGVQSDDAATYYCQATYSSTGWYRAFGGGTEVVVK
notes: rabbit monoclonal antibody; also called P013.A.00109.C12
For the molecule B2, in test [1], the “functional reporter gene assay (% inhibition), 0.04 µg/mL mAb” value came to 19%; the “functional reporter gene assay (% inhibition), 0.2 µg/mL mAb” value was determined as 28%; the “functional reporter gene assay (% inhibition), 1 µg/mL mAb” value amounted to 73%; the “functional reporter gene assay (% inhibition), 5 µg/mL mAb” value is 96%. Further, the “primary supernatant functional assay (% inh.), NF-kB luciferase reporter” value in test [1] stood at 88%. In addition, in test [2], the EC50 came to 0.256 µg/mL. The “hu-IL1RaP ELISA (OD)” value in test [3] was 3.5 OD. Besides, the “mu-IL1RaP ELISA (OD)” value in test [4] was -0.1 OD.

B3: P013.S.02.B.E01 (antibody, V domains shown)
VH: QSLEESGGRLVTPGTPLTLTCTVSGFSLSIYGMGWVRQAPGEGLEWIGSISSGGSTYYATWAKGRFTISKTSSTTLDLKITSPTTEDTATYFCVRSDGYTNGDYDTYFNLWGQGTLVTVS
VL: DIVMTQTPASVSEPVGGTVTIRCQASQSISSWLSWYQQKPGQPPKLLIYQASALASGVSSRFIGSGYGTEFTLTISGVQSEDAATYYCQCTYGIGSNSDYGVAFGGGTEVVVK
notes: rabbit monoclonal antibody; also called P013.A.00013.G07
Take B3: in test [1], the “functional reporter gene assay (% inhibition), 0.04 µg/mL mAb” value is -6%; the “functional reporter gene assay (% inhibition), 0.2 µg/mL mAb” value is 14%; the “functional reporter gene assay (% inhibition), 1 µg/mL mAb” value stood at 56%; the “functional reporter gene assay (% inhibition), 5 µg/mL mAb” value turned out to be 86%. Moreover, the “primary supernatant functional assay (% inh.), NF-kB luciferase reporter” value in test [1] worked out at 79%. Besides, the EC50 in test [2] came to 0.137 µg/mL. Also, the “hu-IL1RaP ELISA (OD)” value in test [3] is 3.7 OD. The “mu-IL1RaP ELISA (OD)” value in test [4] is -0.1 OD.

B4: P013.S.02.B.E02 (antibody, V domains shown)
VH: QSVEESGGRLVTPGTPLTLTCTVSGFSLNVYNMGWVRQAPGKGLEYIGIISSSGTTYYASWAKGRFTISKTSSTTVDLKITSLTTEDTATYFCARADGYTEGDYATYFNLWGQGTLVTVSS
VL: DIVMTQTPASVSEPVGGTVTIKCQASQSITTWLAWYQQKPGQPPKLLIYQASALASGVSSRFIGSGYGTEFTLTISGVQSEDAATYYCQCTYGIGSGSSYGVAFGGGTEVVVK
notes: rabbit monoclonal antibody; also called P013.A.00087.E09
As to B4, in test [1], the “functional reporter gene assay (% inhibition), 0.04 µg/mL mAb” value amounted to 0%; the “functional reporter gene assay (% inhibition), 0.2 µg/mL mAb” value worked out at 14%; the “functional reporter gene assay (% inhibition), 1 µg/mL mAb” value stood at 21%; the “functional reporter gene assay (% inhibition), 5 µg/mL mAb” value was 68%. For the same molecule, the “primary supernatant functional assay (% inh.), NF-kB luciferase reporter” value in test [1] is 85%. In test [2], the EC50 was found to be 0.59 µg/mL. Moreover, the “hu-IL1RaP ELISA (OD)” value in test [3] was found to be 3.3 OD. Moreover, the “mu-IL1RaP ELISA (OD)” value in test [4] was 0 OD.

B5: P013.S.02.B.F04 (antibody, V domains shown)
VH: QEQLVESGGDLVKPEGSLTLTCTASGFSFSSNYWICWVRQAPGKGLEWIACIYTSTDTTYYPNWAKGRFTISKTSSTTVTLQMTSLTAADTATYFCARDLLVVTSFNLWGQGTLVTVSS
VL: ALVMTQTPSPVSAAVGGTVTINCQASEDIYSNLAWFQQKPGQPPKLLIYGASTLASGVPSRFSGSGSGTEFTLTISGVQSDDAATYYCLGVCTDISADDLYNTFGGGTEVVVK
notes: rabbit monoclonal antibody; also called P013.A.00109.B02
Regarding B5, in test [1], the “functional reporter gene assay (% inhibition), 0.04 µg/mL mAb” value is 21%; the “functional reporter gene assay (% inhibition), 0.2 µg/mL mAb” value is 6%; the “functional reporter gene assay (% inhibition), 1 µg/mL mAb” value came out at 81%; the “functional reporter gene assay (% inhibition), 5 µg/mL mAb” value stood at 96%. Moreover, the “primary supernatant functional assay (% inh.), NF-kB luciferase reporter” value in test [1] is 93%. Besides, the EC50 in test [2] is 0.497 µg/mL. For the same molecule, in test [3], the “hu-IL1RaP ELISA (OD)” value worked out at 3.5 OD. Moreover, the “mu-IL1RaP ELISA (OD)” value in test [4] was 0 OD.

B6: P013.S.02.B.D01 (antibody, V domains shown)
VH: LEQSGGGAEGGLVKPGGSLELCCKASGFSLSSNYWMCWVRQAPGKGLEWIGCIYAGSSDSTYYASWVNGRFTLSRDIDQSTGCLQLNSLTAADTAMYYCASPGYGGYGYYGLWGQGTLVTVSS
VL: ALVMTQTPSPVSAAVGGTVTINCQASEDIYSNLAWFQQKPGQPPKLLIYDASTLASGVPSRFSGSGSGTEFTLTISGLQSDDAATYYCLGVYTYISPDGTDNAFGGGTEVVVK
notes: rabbit monoclonal antibody; also called P013.A.00141.G02
As for B6, in test [1], the “functional reporter gene assay (% inhibition), 0.04 µg/mL mAb” value was found to be 9%; the “functional reporter gene assay (% inhibition), 0.2 µg/mL mAb” value was 22%; the “functional reporter gene assay (% inhibition), 1 µg/mL mAb” value was 54%; the “functional reporter gene assay (% inhibition), 5 µg/mL mAb” value was 79%. In addition, in test [1], the “primary supernatant functional assay (% inh.), NF-kB luciferase reporter” value was 85%. Also, the 50% effective concentration (EC50) in test [2] stood at 0.555 µg/mL. The “hu-IL1RaP ELISA (OD)” value in test [3] came out at 3.4 OD. In test [4], the “mu-IL1RaP ELISA (OD)” value was -0.1 OD.

B7: P013.S.02.B.D02 (antibody, V domains shown)
VH: QSLEESGGDLVKPGASLKLSCTASGVSFSSAYWMCWVRQAPGKGLEWIACIYAGSSGSTYYASWAKGRFTISKTSSTTVTLQMTSLTAADTATYFCARHAAWFELDLWGPGTLVTVSS
VL: ALVMTQTPSPVSAAVGGTVTINCQASQNIASAYLSWYQQKPGQPPKLLIYAASTLTDGVPSRFKGSGSVTEFTLTISGVQSDDAATYYCAGYKSYTDDEFAFGGGTEVVVK
notes: rabbit monoclonal antibody; also called P013.A.00086.F05
On to B7, for which, in test [1], the “functional reporter gene assay (% inhibition), 0.04 µg/mL mAb” value is 1%; the “functional reporter gene assay (% inhibition), 0.2 µg/mL mAb” value was determined as 22%; the “functional reporter gene assay (% inhibition), 1 µg/mL mAb” value was determined as 58%; the “functional reporter gene assay (% inhibition), 5 µg/mL mAb” value came out at 79%. In addition, in test [1], the “primary supernatant functional assay (% inh.), NF-kB luciferase reporter” value stood at 85%. Moreover, the EC50 in test [2] is 0.541 µg/mL. Besides, in test [3], the “hu-IL1RaP ELISA (OD)” value was determined as 3.3 OD. In test [4], the “mu-IL1RaP ELISA (OD)” value came out at 0 OD.

B8: P013.S.02.B.C03 (antibody, V domains shown)
VH: QSLEESGGRLVTPGTPLTLTCTVSGIDLSSYAMGWVRQAPGKGLEYIGIISNSGTTYYASWAKGRFTISKTSSTTVDLKMTSPTTEDTATYFCARDRYANTHGIFSLWGQGTLVTVSS
VL: DIVMTQTPASVSAPVGGTVTINCQASESIYSDLAWYQQKPGQPPKLLISFVATLESGVPSRFKGSGSGTEFTLTISDLESADAATYYCQCTYGGSGSGNGAAFGGGTEVVVK
notes: rabbit monoclonal antibody; also called P013.A.00085.G07
On to B8, for which, in test [1], the “functional reporter gene assay (% inhibition), 0.04 µg/mL mAb” value came to 21%; the “functional reporter gene assay (% inhibition), 0.2 µg/mL mAb” value was determined as 27%; the “functional reporter gene assay (% inhibition), 1 µg/mL mAb” value turned out to be 31%; the “functional reporter gene assay (% inhibition), 5 µg/mL mAb” value worked out at 30%. The “primary supernatant functional assay (% inh.), NF-kB luciferase reporter” value in test [1] is 29%. In test [2], the concentration for a half-maximal effect (EC50) came out at 0.847 µg/mL. Besides, in test [3], the “hu-IL1RaP ELISA (OD)” value was 3.6 OD. In test [4], the “mu-IL1RaP ELISA (OD)” value is 0.7 OD.
